Laboratory results as given in US20150140169.
Positions count from the first letter of the chain named. Names may count otherwise.

T1: alpha-s1 casein from Bos taurus
T1 chain: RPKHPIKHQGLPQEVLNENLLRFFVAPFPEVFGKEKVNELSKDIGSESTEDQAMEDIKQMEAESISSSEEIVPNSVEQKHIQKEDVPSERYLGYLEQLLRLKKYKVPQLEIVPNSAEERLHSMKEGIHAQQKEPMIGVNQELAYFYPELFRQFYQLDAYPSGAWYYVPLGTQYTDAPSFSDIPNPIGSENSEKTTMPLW

B1: camel chymosin variant #138 (F223E) (protein)
chain: GKVAREPLTSYLDSQYFGKIYIGTPPQEFTVVFDTGSSDLWVPSIYCKSNVCKNHHRFDPRKSSTFRNLGKPLSIHYGTGSMEGFLGYDTVTVSNIVDPNQTVGLSTEQPGEVFTYSEFDGILGLAYPSLASEYSVPVFDNMMDRHLVARDLFSVYMDRNGQGSMLTLGAIDPSYYTGSLHWVPVTLQQYWQFTVDSVTINGVAVACVGGCQAILDTGTSVLEGPSSDILKIQMAIGATENRYGEFDVNCGNLRSMPTVVFEINGRDYPLSPSAYTSKDQGFCTSGFQGDNNSELWILGDVFIREYYSVFDRANNRVGLAKAI
B2: camel chymosin variant #141 (F223N) (protein)
chain: B1 chain with E223N
B3: camel chymosin variant #145 (F223I) (protein)
chain: B1 chain with E223I
B4: camel chymosin variant #148 (Q288N) (protein)
chain: B1 chain with E223F, Q288N
B5: camel chymosin variant #149 (Q288R) (protein)
chain: B1 chain with E223F, Q288R
B6: camel chymosin variant #151 (D290A) (protein)
chain: B1 chain with E223F, D290A
B7: camel chymosin variant #150 (Q288S) (protein)
chain: B1 chain with E223F, Q288S
B8: camel chymosin variant #139 (F223L) (protein)
chain: B1 chain with E223L
B9: camel chymosin variant #147 (Q288H) (protein)
chain: B1 chain with E223F, Q288H
B10: camel chymosin variant #144 (F223Y) (protein)
chain: B1 chain with E223Y
B11: camel chymosin variant #142 (F223Q) (protein)
chain: B1 chain with E223Q
B12: camel chymosin variant #146 (Q288G) (protein)
chain: B1 chain with E223F, Q288G
B13: camel chymosin variant #140 (F223M) (protein)
chain: B1 chain with E223M
B14: camel chymosin variant #143 (F223V) (protein)
chain: B1 chain with E223V
B15: Maxiren (recombinant wild-type calf chymosin B) (protein)
chain: GEVASVPLTNYLDSQYFGKIYLGTPPQEFTVLFDTGSSDFWVPSIYCKSNACKNHQRFDPRKSSTFQNLGKPLSIHYGTGSMQGILGYDTVTVSNIVDIQQTVGLSTQEPGDVFTYAEFDGILGMAYPSLASEYSIPVFDNMMNRHLVAQDLFSVYMDRNGQESMLTLGAIDPSYYTGSLHWVPVTVQQYWQFTVDSVTISGVVVACEGGCQAILDTGTSKLVGPSSDILNIQQAIGATQNQYGEFDIDCDNLSYMPTVVFEINGKMYPLTPSAYTSQDQGFCTSGFQSENHSQKWILGDVFIREYYSVFDRANNLVGLAKAI

Molecular target: T1, alpha-s1 casein from Bos taurus

Row | Protein | (αSN1-1)/(αSN1), 6 hours, 11° C. | (αSN1-1)/(αSN1), 24 hours, 11° C. | αs1-I CN, 6 hours, 11° C. | αs1-I CN, 24 hours, 11° C. | αs1 CN, 6 hours, 11° C. | αs1 CN, 24 hours, 11° C. | (αSN1-1)/(αSN1), 6 hours, 11° C. (average) | (αSN1-1)/(αSN1), 24 hours, 11° C. (average) | hydrolysis of the first cut in alpha-s1-casein | small, 6 hours, 11° C.
1 | B1 | 0.6 | 1.4 | 2e+07 Volume | 2.47e+07 Volume | 3.29e+07 Volume | 1.74e+07 Volume |  |  |  | 
2 | B2 | 0.7 | 2 | 2.57e+07 Volume | 2.49e+07 Volume | 3.57e+07 Volume | 1.27e+07 Volume |  |  |  | 
3 | B3 | 1.2 | 4.1 | 1.91e+07 Volume | 1.17e+07 Volume | 1.57e+07 Volume | 2.8e+06 Volume |  |  |  | 
4 | B4 | 0.6 | 1.3 | 1.74e+07 Volume | 2.62e+07 Volume | 2.83e+07 Volume | 2.03e+07 Volume |  |  |  | 
5 | B5 | 1 | 3.3 | 2.16e+07 Volume | 2.25e+07 Volume | 2.22e+07 Volume | 6.7e+06 Volume |  |  |  | 
6 | B6 | 1 | 2.5 | 2.29e+07 Volume | 3.22e+07 Volume | 2.31e+07 Volume | 1.31e+07 Volume |  |  |  | 
7 | B7 | 0.6 | 1.3 | 1.83e+07 Volume | 2.31e+07 Volume | 2.87e+07 Volume | 1.72e+07 Volume |  |  |  | 
8 | B8 | 1.2 | 4.3 | 2.59e+07 Volume | 1.24e+07 Volume | 2.1e+07 Volume | 2.9e+06 Volume |  |  |  | 
9 | B9 | 1.1 | 3.3 | 2.28e+07 Volume | 2.35e+07 Volume | 2.15e+07 Volume | 7e+06 Volume |  |  |  | 
10 | B10 | 1 | 3.3 | 3.05e+07 Volume | 2.82e+07 Volume | 3.12e+07 Volume | 8.4e+06 Volume |  |  |  | 
11 | B11 | 0.7 | 1.7 | 2.55e+07 Volume | 1.75e+07 Volume | 3.72e+07 Volume | 1.02e+07 Volume |  |  |  | 
12 | B12 | 0.9 | 2.3 | 2.17e+07 Volume | 2.85e+07 Volume | 2.38e+07 Volume | 1.23e+07 Volume |  |  |  | 
13 | B13 | 0.7 | 2 | 2.34e+07 Volume | 2.27e+07 Volume | 3.22e+07 Volume | 1.14e+07 Volume |  |  |  | 
14 | B14 | 1.1 | 2.4 | 2.62e+07 Volume | 1e+07 Volume | 2.36e+07 Volume | 4.1e+06 Volume |  |  |  | 
15 | B15 |  |  | 2.12e+07 Volume | 1.59e+07 Volume | 1.14e+07 Volume | 1.6e+06 Volume | 1.7 | 6.3 | This rapid first cut is similar to the situation with wild-type calf chymosin (Maxiren) | 0 Volume

Same assay, conditions: not given

Row | Protein | small, 16 hours, 30° C. | small, 24 hours, 11° C. | αs1-I CN, 6 hours, 11° C. (average) | αs1-I CN, 16 hours, 30° C. | αs1-I CN, 24 hours, 11° C. (average) | αs1-I CN/αs1 CN, 6 hours, 11° C. | αs1-I CN/αs1 CN, 24 hours, 11° C. | αs1 CN, 6 hours, 11° C. (average) | αs1 CN, 16 hours, 30° C. | αs1 CN, 24 hours, 11° C. (average)
16 | B15 | 8.1e+06 Volume | 6.7e+06 Volume | 2.63e+07 Volume | 600000 Volume | 2.52e+07 Volume | 1.9 | 9.7 | 1.58e+07 Volume | 900000 Volume | 4e+06 Volume
